In article PMC4613530, “Structure-based design and functional studies of novel noroviral 3C protease chimaeras offer insights into substrate specificity” (Biochemical Journal, 2014):

Molecular target: the molecule itself
Experiment: non-reducing PAGE; purified NS6 proteases analysed by non-reducing PAGE; major band at approximately 18 kDa, minor band at approximately 36 kDa taken as the dimer

Protein	binding result
wild-type murine norovirus NS6 protease (enzyme, NS6 protease (3C-like protease), cut product of the ORF1 polyprotein of murine norovirus 1; expressed flanked by 41 residues of NS5 and 41 residues of NS7 and released by self-cleavage as the 19 kDa mature NS6; its strain may differ at a few residues from the UniProt entry; The tags sit upstream of the NS5 stretch and leave with it on self-excision; also called wtMNV NS6; MNV NS6; not shown: His …) APVSIWSRVVQFGTGWGFWVSGHVFITAKHVAPPKGTEIFGRKPGDFTVTSSGDFLKYYFTSAVRPDIPAMVLENGCQEGVVASVLVKRASGEMLALAVRMGSQAAIKIGSAVVHGQTGMLLTGSNAKAQDLGTIPGDCGCPYVYKKGNTWVVIGVHVAATRSGNTVIAATHGEPTLEALEFQ	binds
wild-type Southampton virus NS6 protease (enzyme, NS6 protease (3C-like protease), cut product of the ORF1 polyprotein of Southampton virus (human norovirus); also called wtSV NS6; SV NS6) APPTLWSRVTKFGSGWGFWVSPTVFITTTHVIPTSAKEFFGEPLTSIAIHRAGEFTLFRFSKKIRPDLTGMILEEGCPEGTVCSVLIKRDSGELLPLAVRMGAIASMRIQGRLVHGQSGMLLTGANAKGMDLGTIPGDCGAPYVYKRANDWVVCGVHAAATKSGNTVVCAVQASEGETTLE	binds
